B1: (A14A, A21G, A22(GQAP)18, A94G, A95Q, A96A, A97K^, A98P, B29R, desB30 human insulin)/(227A, 234A, 235K, 297E, 315Q, 384Q, des447 hIgG4-Fc(228-447)) … (other)
chain 1: GIVEQCCTSICSLAQLENYCGGQAPGQAPGQAPGQAPGQAPGQAPGQAPGQAPGQAPGQAPGQAPGQAPGQAPGQAPGQAPGQAPGQAPGQAPGQAKP
chain 2: FVNQHLCGSHLVEALYLVCGERGFFYTPR
chain 3: ASCPAPEAKGGPSVFLFPPKPKDTLMISRTPEVTCVVVDVSQEDPEVQFNWYVDGVEVHNAKTKPREEQFESTYRVVSVLTVLHQDWLQGKEYKCKVSNKGLPSSIEKTISKAKGQPREPQVYTLPPSQEEMTKNQVSLTCLVKGFYPSDIAVEWESQGQPENNYKTTPPVLDSDGSFFLYSRLTVDKSRWQEGNVFSCSVMHEALHNHYTQKSLSLSLG
modifications: Cys229 (EU numbering) sulphur bound to an acetyl arm of the linker; A97K N(eps) acylated by the trivalent linker 4-[bis[2-[(2-acetyl)amino]ethyl]amino]-4-oxo-butanoyl
notes: also called Ex 5.25
B2: (A14E, A21G, A22(GQEP)19, A98K^, A99P, B25H, B29R, desB30 human insulin)/(227A, 234A, 235K, 297E, 315Q, 384Q, des447 hIgG4-Fc(228-447)) … (other)
chain 1: GIVEQCCTSICSLEQLENYCGGQEPGQEPGQEPGQEPGQEPGQEPGQEPGQEPGQEPGQEPGQEPGQEPGQEPGQEPGQEPGQEPGQEPGQEPGQEPKP
chain 2: FVNQHLCGSHLVEALYLVCGERGFHYTPR
chain 3: B1 chain 3
modifications: Cys229 (EU numbering) sulphur bound to an acetyl arm of the linker; A98K N(eps) acylated by the trivalent linker 4-[bis[2-[(2-acetyl)amino]ethyl]amino]-4-oxo-butanoyl
notes: also called Ex 5.12
B3: A14E, A21G, A22(GQAPGQAPGQEP)6-GQAP, A98K^, A99P, B3Q, B25H, B29R, desB30 human insulin/(227A, 234A, 235K, 297E, 315Q, 384Q, des447 hIgG4-Fc(228-447)) … (other)
chain 1: GIVEQCCTSICSLEQLENYCGGQAPGQAPGQEPGQAPGQAPGQEPGQAPGQAPGQEPGQAPGQAPGQEPGQAPGQAPGQEPGQAPGQAPGQEPGQAPKP
chain 2: FVQQHLCGSHLVEALYLVCGERGFHYTPR
chain 3: B1 chain 3
modifications: Cys229 (EU numbering) sulphur bound to an acetyl arm of the linker; A98K N(eps) acylated by the trivalent linker 4-[bis[2-[(2-acetyl)amino]ethyl]amino]-4-oxo-butanoyl
notes: also called Ex 5.13
B4: A14E, A21G, A22(GQAPGQAPGQEP)6-GQAP, A98K^, A99P, B29R, desB30 human insulin/(227A, 234A, 235K, 297E, 315Q, 384Q, des447 hIgG4-Fc(228-447)) … (other)
chain 1: B3 chain 1
chain 2: FVNQHLCGSHLVEALYLVCGERGFFYTPR
chain 3: B1 chain 3
modifications: Cys229 (EU numbering) sulphur bound to an acetyl arm of the linker; A98K N(eps) acylated by the trivalent linker 4-[bis[2-[(2-acetyl)amino]ethyl]amino]-4-oxo-butanoyl
B5: (A14E, A21G, A22(GQAP)24, A118G, A119Q, A120A, A121K^, A122P, B29R, desB30 human insulin)/(227A, 234A, 235K, 297E, 315Q, 384Q, des447 hIgG4-Fc(228-447)) … (other)
chain 1: GIVEQCCTSICSLEQLENYCGGQAPGQAPGQAPGQAPGQAPGQAPGQAPGQAPGQAPGQAPGQAPGQAPGQAPGQAPGQAPGQAPGQAPGQAPGQAPGQAPGQAPGQAPGQAPGQAPGQAKP
chain 2: FVNQHLCGSHLVEALYLVCGERGFFYTPR
chain 3: B1 chain 3
modifications: Cys229 (EU numbering) sulphur bound to an acetyl arm of the linker; A121K N(eps) acylated by the trivalent linker 3,5-bis[(2-acetyl)amino]benzoyl
notes: also called Ex 5.29
B6: A14E, A21G, A22(GQAPGQAPGQEP)6-GQAP, A98K^, A99P, B3Q, B25H, B29R, desB30 human insulin/(227A, 234A, 235K, 297E, 315Q, 384Q, des447 hIgG4-Fc(228-447)) … (other)
chain 1: B3 chain 1
chain 2: FVQQHLCGSHLVEALYLVCGERGFHYTPR
chain 3: B1 chain 3
modifications: Cys229 (EU numbering) sulphur bound to an acetyl arm of the linker; A98K N(eps) acylated by the trivalent linker 4-[bis[2-[(2-acetyl)amino]ethyl]carbamoylamino]butanoyl
notes: also called Ex 5.24
B7: (A14E, A21G, A22(GQEP)19, 98K^, A99P, B25H, B29R, desB30 human insulin)/(226A, 227G, 228P, 234A, 235K, des447 hIgG4-Fc(228-447)) … (other)
chain 1: B2 chain 1
chain 2: FVNQHLCGSHLVEALYLVCGERGFHYTPR
chain 3: AGPCPAPEAKGGPSVFLFPPKPKDTLMISRTPEVTCVVVDVSQEDPEVQFNWYVDGVEVHNAKTKPREEQFNSTYRVVSVLTVLHQDWLNGKEYKCKVSNKGLPSSIEKTISKAKGQPREPQVYTLPPSQEEMTKNQVSLTCLVKGFYPSDIAVEWESNGQPENNYKTTPPVLDSDGSFFLYSRLTVDKSRWQEGNVFSCSVMHEALHNHYTQKSLSLSLG
modifications: Cys229 (EU numbering) sulphur bound to an acetyl arm of the linker; A98K N(eps) acylated by the trivalent linker 3,5-bis[(2-acetyl)amino]benzoyl
B8: A14E, A21Q, A22(G)18, A40K^, B25H, B29R, desB30 human insulin/(227A, 234A, 235K hIgG4-Fc(228-447)) 4-[bis[2-[(2-acetyl)amino]ethyl]amino]-4-oxo-butanoyl … (other)
chain 1: GIVEQCCTSICSLEQLENYCQGGGGGGGGGGGGGGGGGGK
chain 2: FVNQHLCGSHLVEALYLVCGERGFHYTPR
chain 3: ASCPAPEAKGGPSVFLFPPKPKDTLMISRTPEVTCVVVDVSQEDPEVQFNWYVDGVEVHNAKTKPREEQFNSTYRVVSVLTVLHQDWLNGKEYKCKVSNKGLPSSIEKTISKAKGQPREPQVYTLPPSQEEMTKNQVSLTCLVKGFYPSDIAVEWESNGQPENNYKTTPPVLDSDGSFFLYSRLTVDKSRWQEGNVFSCSVMHEALHNHYTQKSLSLSLGK
modifications: Cys229 (EU numbering) sulphur bound to an acetyl arm of the linker; A40K N(eps) acylated by the trivalent linker 4-[bis[2-[(2-acetyl)amino]ethyl]amino]-4-oxo-butanoyl
notes: also called Ex 5.21
B9: A14E, A21G, A22(GQEP)3, A34G, A35Q, A36E, A37K^, A38P, B25H, B29R, desB30 human insulin/(227A, 234A, 235K hIgG4-Fc(228-447)) … (other)
chain 1: GIVEQCCTSICSLEQLENYCGGQEPGQEPGQEPGQEKP
chain 2: FVNQHLCGSHLVEALYLVCGERGFHYTPR
chain 3: B8 chain 3
modifications: Cys229 (EU numbering) sulphur bound to an acetyl arm of the linker; A37K N(eps) acylated by the trivalent linker 4-[bis[2-[(2-acetyl)amino]ethyl]amino]-4-oxo-butanoyl
notes: also called Ex 5.10
B10: A14E, A21G, A22(GQAPGQEP)6, A70K^, A71P, B25H, B29R, desB30 human insulin/(227A, 234A, 235K hIgG4-Fc(228-447)) … (other)
chain 1: GIVEQCCTSICSLEQLENYCGGQAPGQEPGQAPGQEPGQAPGQEPGQAPGQEPGQAPGQEPGQAPGQEPKP
chain 2: FVNQHLCGSHLVEALYLVCGERGFHYTPR
chain 3: B8 chain 3
modifications: Cys229 (EU numbering) sulphur bound to an acetyl arm of the linker; A70K N(eps) acylated by the trivalent linker 4-[bis[2-[(2-acetyl)amino]ethyl]amino]-4-oxo-butanoyl
notes: also called Ex 5.9
B11: A14E, A21G, A22(GQEP)19, A98K^, A99P, B3Q, B25H, B29R, desB30 human insulin/(227A, 234A, 235K hIgG4-Fc(228-447)) … (other)
chain 1: B2 chain 1
chain 2: FVQQHLCGSHLVEALYLVCGERGFHYTPR
chain 3: B8 chain 3
modifications: Cys229 (EU numbering) sulphur bound to an acetyl arm of the linker; A98K N(eps) acylated by the trivalent linker 4-[bis[2-[(2-acetyl)amino]ethyl]amino]-4-oxo-butanoyl
notes: also called Ex 5.6

What was measured:
insulin receptor A = insulin receptor A (UniProt P06213-2 28-1370, limits assumed); assay: insulin receptor binding assay as in Vienberg et al. 2011; relative to human insulin on insulin receptor A (100%)
Chain of insulin receptor A (P06213 other isoform, or with tags, fused parts or gaps limits assumed): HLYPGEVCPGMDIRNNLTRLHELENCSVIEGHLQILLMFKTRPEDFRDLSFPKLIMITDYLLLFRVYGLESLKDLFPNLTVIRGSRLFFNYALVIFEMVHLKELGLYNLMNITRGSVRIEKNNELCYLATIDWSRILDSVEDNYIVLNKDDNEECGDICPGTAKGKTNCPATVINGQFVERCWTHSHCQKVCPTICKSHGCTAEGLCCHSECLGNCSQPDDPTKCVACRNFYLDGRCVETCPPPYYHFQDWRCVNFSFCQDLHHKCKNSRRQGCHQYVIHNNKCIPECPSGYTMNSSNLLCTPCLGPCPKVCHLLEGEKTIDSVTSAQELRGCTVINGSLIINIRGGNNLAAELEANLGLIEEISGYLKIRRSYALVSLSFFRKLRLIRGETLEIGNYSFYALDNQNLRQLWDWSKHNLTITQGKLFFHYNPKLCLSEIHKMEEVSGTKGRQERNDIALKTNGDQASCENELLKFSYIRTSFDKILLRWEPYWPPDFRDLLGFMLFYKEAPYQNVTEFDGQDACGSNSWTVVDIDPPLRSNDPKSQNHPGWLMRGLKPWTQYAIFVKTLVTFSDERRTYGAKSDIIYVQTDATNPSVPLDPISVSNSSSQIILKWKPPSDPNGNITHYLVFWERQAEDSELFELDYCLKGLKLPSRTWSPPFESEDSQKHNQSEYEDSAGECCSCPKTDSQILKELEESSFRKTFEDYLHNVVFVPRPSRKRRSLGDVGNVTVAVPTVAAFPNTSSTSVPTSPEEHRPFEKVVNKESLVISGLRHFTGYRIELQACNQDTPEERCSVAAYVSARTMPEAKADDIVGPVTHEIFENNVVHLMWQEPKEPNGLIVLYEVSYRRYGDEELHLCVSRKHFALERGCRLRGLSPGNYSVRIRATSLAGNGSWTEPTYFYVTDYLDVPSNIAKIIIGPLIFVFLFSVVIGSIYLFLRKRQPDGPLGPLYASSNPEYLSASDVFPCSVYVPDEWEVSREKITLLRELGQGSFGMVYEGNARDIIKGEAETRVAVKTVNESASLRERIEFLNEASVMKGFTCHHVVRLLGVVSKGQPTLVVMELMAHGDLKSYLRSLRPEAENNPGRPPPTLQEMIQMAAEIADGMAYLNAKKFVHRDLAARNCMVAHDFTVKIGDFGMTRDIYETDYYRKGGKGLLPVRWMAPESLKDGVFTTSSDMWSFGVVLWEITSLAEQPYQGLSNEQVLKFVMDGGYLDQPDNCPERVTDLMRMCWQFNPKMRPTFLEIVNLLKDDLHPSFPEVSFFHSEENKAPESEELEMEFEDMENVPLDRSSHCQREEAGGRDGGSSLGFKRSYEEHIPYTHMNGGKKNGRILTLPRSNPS

[1] = target: insulin receptor of isolated rat adipocytes (rat, UniProt P15127 27-1383); assay: cell-based or functional assay
Chain of insulin receptor of isolated rat adipocytes (P15127 27-1383): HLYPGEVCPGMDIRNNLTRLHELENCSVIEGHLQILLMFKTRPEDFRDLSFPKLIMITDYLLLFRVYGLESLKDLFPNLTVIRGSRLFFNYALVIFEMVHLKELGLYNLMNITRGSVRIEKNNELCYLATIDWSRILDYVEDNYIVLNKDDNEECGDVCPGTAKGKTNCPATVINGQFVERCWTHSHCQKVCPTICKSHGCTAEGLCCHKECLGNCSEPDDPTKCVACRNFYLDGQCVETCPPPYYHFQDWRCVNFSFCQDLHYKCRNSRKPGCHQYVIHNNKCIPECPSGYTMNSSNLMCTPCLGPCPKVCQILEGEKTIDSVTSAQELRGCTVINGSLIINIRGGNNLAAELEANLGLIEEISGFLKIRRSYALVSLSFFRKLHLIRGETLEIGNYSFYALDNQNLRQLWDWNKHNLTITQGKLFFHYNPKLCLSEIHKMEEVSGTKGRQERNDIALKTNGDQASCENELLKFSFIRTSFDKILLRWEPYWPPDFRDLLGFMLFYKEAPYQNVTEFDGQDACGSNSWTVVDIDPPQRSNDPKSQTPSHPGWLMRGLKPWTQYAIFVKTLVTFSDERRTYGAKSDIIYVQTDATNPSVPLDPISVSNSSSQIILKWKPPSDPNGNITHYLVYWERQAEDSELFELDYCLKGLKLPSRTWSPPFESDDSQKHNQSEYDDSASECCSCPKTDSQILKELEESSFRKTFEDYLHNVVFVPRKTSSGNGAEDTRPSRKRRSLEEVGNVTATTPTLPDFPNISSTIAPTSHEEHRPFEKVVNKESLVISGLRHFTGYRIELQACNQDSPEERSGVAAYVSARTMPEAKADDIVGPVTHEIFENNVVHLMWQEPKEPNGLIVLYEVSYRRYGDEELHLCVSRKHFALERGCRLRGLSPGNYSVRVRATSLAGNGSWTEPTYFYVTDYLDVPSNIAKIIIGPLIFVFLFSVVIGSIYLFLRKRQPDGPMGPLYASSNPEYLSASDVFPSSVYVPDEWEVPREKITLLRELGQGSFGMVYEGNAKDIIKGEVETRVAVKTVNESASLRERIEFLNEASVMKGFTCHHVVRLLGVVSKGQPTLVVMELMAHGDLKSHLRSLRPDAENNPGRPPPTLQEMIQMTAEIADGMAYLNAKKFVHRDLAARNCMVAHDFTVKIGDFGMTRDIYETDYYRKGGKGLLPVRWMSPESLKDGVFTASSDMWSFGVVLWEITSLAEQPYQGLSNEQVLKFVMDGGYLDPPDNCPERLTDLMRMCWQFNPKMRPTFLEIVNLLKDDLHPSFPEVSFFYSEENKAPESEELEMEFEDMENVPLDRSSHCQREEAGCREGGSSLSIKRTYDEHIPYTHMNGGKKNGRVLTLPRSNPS

Row | Binder | Insulin receptor affinity [IC50 relative to HI (%)] (insulin receptor A) [%] | Lipogenesis in rat adipocytes [Potency (%)] Mean Value [1]
1 | B1 | 4.49 | 2.08 % of human insulin
2 | B2 | 1.85 | 2.35 % of human insulin
3 | B3 | 5.55 | 3.07 % of human insulin
4 | B4 | 4 | 3.02 % of human insulin
5 | B5 | 3.06 | 2.64 % of human insulin
6 | B6 | 4.6 | 3.83 % of human insulin
7 | B7 | 3.85 | 
8 | B8 | 2.1 | 0.95 % of human insulin
9 | B9 | 2.47 | 
10 | B10 | 2.96 | 3.02 % of human insulin
11 | B11 | 5.07 | 

— patent US20200261595A1 (Novo Nordisk, published 2020)
